According to patent US20190134153A1, “IMMUNOMODULATORY EFFECT OF INHALED KINASE INHIBITOR PEPTIDES IN LUNG” (MOERAE MATRIX, INC., priority 2017, published 2019):

Experiments:
Experiment in all cases: Kinase Profiling Assay
Format in all cases: biochemical
Conditions in all cases: 100 μM
[1] = target: HIPK3(h) (Homo sapiens, UniProt Q9H422)
[2] = target: Abl (M351T)(h) (Homo sapiens, UniProt P00519, M351T)
[3] = target: JNK1α1(h) (Homo sapiens, UniProt P45983)
[4] = target: Abl (H396P) (h) (Homo sapiens, UniProt P00519, H396P)
[5] = target: T1, Aurora-A(h) (Homo sapiens, UniProt O14965)
T1 sequence (O14965 1-403): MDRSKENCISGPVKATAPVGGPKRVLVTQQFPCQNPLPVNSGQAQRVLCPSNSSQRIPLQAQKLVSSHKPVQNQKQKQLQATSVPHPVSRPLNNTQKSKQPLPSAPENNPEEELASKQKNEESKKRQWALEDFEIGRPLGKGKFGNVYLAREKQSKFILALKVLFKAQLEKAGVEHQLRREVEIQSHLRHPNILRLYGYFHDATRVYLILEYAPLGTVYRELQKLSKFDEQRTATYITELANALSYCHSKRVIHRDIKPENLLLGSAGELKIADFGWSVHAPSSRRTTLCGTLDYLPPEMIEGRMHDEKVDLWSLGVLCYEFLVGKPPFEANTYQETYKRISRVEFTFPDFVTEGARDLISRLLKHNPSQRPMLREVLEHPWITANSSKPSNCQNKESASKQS

[6] = target: Lck(h) (Homo sapiens, UniProt P06239)
Chain of Lck(h) (P06239 whole entry): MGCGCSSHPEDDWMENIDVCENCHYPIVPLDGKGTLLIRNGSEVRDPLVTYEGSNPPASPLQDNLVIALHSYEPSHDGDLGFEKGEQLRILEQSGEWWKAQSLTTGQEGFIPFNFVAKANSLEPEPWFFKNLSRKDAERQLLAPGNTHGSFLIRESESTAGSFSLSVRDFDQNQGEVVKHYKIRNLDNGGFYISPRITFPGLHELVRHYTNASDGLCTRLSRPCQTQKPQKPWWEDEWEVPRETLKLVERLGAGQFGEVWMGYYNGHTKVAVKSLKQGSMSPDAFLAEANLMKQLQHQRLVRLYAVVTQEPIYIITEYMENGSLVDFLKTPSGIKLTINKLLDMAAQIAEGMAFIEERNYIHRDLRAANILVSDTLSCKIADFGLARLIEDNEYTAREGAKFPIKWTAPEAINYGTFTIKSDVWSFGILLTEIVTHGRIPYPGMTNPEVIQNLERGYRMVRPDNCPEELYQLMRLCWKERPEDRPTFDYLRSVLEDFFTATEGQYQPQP

[7] = target: PAK3(h) (Homo sapiens, UniProt O75914)
Chain of PAK3(h) (O75914 whole entry): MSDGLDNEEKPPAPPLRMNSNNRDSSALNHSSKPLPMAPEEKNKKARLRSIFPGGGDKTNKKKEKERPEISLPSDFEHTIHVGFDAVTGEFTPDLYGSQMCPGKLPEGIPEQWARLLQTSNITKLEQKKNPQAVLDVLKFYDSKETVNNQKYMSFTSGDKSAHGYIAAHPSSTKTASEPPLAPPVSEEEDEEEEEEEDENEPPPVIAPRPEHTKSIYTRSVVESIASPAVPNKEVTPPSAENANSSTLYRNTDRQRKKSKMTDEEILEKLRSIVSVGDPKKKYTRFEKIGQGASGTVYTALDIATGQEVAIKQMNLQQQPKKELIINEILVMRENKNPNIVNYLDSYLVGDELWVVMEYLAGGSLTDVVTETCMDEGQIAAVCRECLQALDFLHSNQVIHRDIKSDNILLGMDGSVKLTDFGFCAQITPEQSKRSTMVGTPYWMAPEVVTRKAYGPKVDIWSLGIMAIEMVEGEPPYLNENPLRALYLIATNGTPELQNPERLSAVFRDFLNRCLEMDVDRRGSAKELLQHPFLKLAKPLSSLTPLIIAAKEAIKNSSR

[8] = target: CK1γ3(h) (Homo sapiens, UniProt Q9Y6M4)
Chain of CK1γ3(h) (Q9Y6M4 whole entry): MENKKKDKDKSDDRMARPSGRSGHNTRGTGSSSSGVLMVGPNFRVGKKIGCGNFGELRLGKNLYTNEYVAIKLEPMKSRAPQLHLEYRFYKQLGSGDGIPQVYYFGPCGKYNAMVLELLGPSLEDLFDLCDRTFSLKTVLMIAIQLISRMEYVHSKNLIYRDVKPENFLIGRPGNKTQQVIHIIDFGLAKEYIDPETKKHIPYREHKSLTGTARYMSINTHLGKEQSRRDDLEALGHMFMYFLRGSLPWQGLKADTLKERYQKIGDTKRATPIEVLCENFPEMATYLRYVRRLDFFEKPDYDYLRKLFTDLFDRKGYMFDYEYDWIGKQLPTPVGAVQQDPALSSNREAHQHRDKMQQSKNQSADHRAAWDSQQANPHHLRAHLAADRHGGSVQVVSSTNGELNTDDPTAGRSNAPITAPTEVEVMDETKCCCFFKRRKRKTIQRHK

[9] = target: T2, MKK7β(h) (Homo sapiens, UniProt O14733)
T2 sequence (O14733 1-419): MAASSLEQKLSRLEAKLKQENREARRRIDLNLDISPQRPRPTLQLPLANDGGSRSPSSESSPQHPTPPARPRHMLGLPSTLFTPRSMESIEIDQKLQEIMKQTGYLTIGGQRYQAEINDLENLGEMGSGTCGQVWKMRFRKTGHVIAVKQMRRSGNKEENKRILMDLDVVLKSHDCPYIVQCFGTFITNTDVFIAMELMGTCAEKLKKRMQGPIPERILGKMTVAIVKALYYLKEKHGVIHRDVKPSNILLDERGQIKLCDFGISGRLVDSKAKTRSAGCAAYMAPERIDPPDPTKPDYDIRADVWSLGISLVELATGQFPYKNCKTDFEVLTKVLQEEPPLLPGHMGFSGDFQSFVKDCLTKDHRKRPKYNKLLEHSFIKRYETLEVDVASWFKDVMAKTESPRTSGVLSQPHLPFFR

[10] = target: CK2α2(h) (Homo sapiens, UniProt P19784)
Chain of CK2α2(h) (P19784 whole entry): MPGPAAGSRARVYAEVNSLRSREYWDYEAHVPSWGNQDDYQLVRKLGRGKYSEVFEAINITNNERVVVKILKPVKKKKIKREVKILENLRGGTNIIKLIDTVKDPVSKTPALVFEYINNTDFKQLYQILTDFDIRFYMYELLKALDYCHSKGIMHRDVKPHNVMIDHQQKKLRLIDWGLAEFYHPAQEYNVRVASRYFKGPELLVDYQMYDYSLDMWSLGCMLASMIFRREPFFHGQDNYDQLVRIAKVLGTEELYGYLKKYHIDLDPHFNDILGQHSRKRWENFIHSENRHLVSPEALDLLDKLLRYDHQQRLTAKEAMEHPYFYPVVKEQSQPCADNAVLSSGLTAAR

[11] = target: GRK5(h) (Homo sapiens, UniProt P34947)
[12] = target: PKA(h) (Homo sapiens, UniProt P17612)
[13] = target: PAR-1Bα(h) (Homo sapiens, UniProt Q7KZI7)
Chain of PAR-1Bα(h) (Q7KZI7 1-725 isoform Q7KZI7-4): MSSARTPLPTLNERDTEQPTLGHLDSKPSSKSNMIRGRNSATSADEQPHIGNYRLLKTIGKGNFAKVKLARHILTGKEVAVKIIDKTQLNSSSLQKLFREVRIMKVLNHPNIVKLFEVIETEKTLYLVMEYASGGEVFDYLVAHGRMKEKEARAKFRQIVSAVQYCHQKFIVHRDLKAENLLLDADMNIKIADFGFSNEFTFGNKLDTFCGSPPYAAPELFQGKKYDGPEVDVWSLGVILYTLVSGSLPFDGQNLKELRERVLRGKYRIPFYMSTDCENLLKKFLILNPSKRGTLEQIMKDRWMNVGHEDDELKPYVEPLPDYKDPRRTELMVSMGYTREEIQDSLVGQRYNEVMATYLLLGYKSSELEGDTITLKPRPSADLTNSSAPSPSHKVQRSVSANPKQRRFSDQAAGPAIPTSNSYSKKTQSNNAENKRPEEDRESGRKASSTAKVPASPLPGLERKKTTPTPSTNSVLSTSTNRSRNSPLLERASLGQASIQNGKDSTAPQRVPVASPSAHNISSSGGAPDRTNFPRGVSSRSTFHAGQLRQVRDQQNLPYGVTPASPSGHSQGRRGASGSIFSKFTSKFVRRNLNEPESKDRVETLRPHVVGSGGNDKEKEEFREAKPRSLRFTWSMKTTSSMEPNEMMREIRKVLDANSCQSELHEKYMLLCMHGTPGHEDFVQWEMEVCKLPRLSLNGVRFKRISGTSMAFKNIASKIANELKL

[14] = target: PDGFRα(D842V)(h) (Homo sapiens, UniProt P16234, D842V)
Chain of PDGFRα(D842V)(h) (P16234 24-1089 D842V): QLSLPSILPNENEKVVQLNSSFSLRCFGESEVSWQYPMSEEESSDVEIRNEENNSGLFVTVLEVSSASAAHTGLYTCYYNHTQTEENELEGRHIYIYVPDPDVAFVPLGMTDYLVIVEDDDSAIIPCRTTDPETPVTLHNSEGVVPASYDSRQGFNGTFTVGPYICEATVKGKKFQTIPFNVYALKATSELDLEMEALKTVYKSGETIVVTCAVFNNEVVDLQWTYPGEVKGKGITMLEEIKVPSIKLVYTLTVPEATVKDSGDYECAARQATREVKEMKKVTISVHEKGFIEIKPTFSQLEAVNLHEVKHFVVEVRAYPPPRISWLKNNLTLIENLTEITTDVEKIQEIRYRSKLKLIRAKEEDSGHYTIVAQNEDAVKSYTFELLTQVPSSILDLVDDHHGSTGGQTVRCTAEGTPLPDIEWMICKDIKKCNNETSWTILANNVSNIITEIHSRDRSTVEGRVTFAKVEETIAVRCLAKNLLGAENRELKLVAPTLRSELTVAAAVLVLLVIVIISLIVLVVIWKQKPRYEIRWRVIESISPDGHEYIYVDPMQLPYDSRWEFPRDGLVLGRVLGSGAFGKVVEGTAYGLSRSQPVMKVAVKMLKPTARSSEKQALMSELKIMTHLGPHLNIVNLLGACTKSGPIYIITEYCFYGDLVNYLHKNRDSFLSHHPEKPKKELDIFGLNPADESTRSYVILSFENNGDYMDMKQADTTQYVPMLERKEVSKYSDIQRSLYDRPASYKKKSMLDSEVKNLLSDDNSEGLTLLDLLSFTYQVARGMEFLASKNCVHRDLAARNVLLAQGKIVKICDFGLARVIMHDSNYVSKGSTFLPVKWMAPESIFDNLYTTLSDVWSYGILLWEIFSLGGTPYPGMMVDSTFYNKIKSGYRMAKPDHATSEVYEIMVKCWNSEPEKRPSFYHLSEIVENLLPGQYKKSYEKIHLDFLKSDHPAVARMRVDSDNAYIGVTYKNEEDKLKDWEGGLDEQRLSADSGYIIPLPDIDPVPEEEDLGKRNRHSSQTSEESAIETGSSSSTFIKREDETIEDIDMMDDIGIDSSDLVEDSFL

[15] = target: cKit(V560G)(h) (Homo sapiens, UniProt P10721, V560G)
[16] = target: T3, JAK3(h) (Homo sapiens, UniProt P52333)
T3 sequence (P52333 1-1124): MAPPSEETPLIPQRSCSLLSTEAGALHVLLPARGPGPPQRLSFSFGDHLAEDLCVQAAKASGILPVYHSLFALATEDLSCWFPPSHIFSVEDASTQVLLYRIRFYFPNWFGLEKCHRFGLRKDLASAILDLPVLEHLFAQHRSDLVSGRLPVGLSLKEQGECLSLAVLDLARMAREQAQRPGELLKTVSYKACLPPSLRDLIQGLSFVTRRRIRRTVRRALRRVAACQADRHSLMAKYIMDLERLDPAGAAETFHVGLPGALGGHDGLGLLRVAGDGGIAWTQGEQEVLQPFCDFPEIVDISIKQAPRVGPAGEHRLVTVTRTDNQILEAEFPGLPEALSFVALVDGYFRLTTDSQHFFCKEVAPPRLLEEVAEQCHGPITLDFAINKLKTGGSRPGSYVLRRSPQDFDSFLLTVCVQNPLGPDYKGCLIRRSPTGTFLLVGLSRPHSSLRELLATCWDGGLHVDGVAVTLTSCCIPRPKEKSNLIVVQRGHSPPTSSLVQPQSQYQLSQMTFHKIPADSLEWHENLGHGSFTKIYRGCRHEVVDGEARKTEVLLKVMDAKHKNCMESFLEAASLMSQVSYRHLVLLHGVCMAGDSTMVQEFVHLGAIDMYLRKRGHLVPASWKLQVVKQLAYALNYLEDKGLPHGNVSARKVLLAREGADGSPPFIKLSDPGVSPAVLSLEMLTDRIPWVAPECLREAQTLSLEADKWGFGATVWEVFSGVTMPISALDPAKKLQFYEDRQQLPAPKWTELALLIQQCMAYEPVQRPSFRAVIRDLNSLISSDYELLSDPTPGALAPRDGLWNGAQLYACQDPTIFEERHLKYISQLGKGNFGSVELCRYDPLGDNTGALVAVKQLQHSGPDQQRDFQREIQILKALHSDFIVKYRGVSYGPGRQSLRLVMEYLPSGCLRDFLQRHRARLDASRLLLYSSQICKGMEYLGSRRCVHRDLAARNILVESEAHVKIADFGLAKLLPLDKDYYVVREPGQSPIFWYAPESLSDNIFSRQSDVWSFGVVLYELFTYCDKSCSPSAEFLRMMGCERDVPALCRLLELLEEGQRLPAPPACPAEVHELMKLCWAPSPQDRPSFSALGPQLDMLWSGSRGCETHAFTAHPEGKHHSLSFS

Chain of HIPK3(h) (Q9H422 whole entry): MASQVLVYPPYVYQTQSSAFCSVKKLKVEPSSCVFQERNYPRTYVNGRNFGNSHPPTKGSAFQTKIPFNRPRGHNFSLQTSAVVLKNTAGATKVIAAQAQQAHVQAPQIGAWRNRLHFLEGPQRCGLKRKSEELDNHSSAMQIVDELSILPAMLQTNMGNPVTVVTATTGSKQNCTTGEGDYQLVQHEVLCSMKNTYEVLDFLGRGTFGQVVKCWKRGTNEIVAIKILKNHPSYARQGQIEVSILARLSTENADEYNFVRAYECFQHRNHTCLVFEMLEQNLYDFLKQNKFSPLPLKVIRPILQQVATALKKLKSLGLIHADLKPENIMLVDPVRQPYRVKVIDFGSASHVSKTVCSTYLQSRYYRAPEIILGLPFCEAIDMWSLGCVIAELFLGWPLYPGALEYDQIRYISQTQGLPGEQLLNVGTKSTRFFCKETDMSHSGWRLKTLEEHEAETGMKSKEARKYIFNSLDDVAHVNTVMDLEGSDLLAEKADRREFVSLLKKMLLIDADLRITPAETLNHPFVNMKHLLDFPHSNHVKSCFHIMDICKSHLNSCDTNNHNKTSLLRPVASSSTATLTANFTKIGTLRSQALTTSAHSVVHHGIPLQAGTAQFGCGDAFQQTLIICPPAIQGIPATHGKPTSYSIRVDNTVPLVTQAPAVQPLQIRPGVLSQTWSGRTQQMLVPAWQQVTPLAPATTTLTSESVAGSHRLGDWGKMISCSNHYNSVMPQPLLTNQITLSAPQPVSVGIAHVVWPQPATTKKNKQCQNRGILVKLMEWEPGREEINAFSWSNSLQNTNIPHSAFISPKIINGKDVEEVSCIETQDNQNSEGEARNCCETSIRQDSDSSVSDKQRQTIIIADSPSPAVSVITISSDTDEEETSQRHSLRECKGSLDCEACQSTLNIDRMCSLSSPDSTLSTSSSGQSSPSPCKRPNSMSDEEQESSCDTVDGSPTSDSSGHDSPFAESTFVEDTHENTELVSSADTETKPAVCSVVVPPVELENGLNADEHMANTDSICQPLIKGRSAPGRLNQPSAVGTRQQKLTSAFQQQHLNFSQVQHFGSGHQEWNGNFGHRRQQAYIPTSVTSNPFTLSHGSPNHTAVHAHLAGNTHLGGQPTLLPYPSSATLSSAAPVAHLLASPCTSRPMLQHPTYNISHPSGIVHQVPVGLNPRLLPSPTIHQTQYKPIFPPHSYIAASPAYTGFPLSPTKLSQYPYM

## FAKLAARLYRKALARQLGVAA [MMI-0300]
[1]
  % activity: 93%
[2]
  % activity: 90%
[3]
  % activity: 97%
[4]
  % activity: 101%
[5]
  % activity: 92%
[6]
  % activity: −2%
[7]
  % activity: 140%
[8]
  % activity: 125%
[9]
  % activity: 100%

## YARAAARQARAKALNRQLGVA [MMI-0200]
[10]
  % activity: 88%
[11]
  % activity: 135%
[12]
  % activity: 110%
[13]
  % activity: 110%
[7]
  % activity: 50%
[8]
  % activity: 96%

## KAFAKLAARLYRKALARQLGVAA [MMI-0400]
[14]
  % activity: 118%
[10]
  % activity: 96%
[15]
  % activity: 124%
[3]
  % activity: 98%
[11]
  % activity: 131%
[16]
  % activity: 122%
[9]
  % activity: 94%

## HRRIKAWLKKIKALARQLGVAA [MMI-0500]
[14]
  % activity: 170%
[1]
  % activity: 85%
[2]
  % activity: 61%
[15]
  % activity: 198%
[16]
  % activity: 95%
[4]
  % activity: 51%
[5]
  % activity: 110%
[6]
  % activity: 359%
[12]
  % activity: 118%
[13]
  % activity: 97%
